From PMC7214622, “Function of P2X4 Receptors Is Directly Modulated by a 1:1 Stoichiometric Interaction With 5-HT3A Receptors” (Frontiers in Cellular Neuroscience, 2020)

Target: T1, rat P2X4 receptor with a C-terminal hemagglutinin (HA) tag (rat, UniProt P51577 1-388)
T1 construct: P2X4 subunit, rat (Rattus norvegicus), GenBank U47031.1; UniProt P51577 is printed for the rat P2X4 subunit in the modelling methods; The subunit ran at 70 kDa on SDS-PAGE, which the authors put down to glycosylation; also called P2X4 subunit; source: tsA201 cells, transfected (pcDNA3.1, PEI); Triton X-100 solubilised MEMBRANE fraction; eluted from anti-HA agarose beads with HA peptide; not …
T1 sequence (looked up): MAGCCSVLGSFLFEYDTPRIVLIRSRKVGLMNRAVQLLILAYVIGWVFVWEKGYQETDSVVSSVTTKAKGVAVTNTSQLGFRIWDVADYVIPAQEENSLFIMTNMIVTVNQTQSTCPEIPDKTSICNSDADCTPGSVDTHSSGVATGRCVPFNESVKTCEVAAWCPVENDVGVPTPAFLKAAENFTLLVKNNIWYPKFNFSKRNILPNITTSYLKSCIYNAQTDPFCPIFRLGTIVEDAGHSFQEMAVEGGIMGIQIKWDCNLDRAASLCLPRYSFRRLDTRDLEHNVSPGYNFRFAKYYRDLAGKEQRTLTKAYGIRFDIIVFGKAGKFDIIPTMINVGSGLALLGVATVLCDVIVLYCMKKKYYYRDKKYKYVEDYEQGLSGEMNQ
Experiment: atomic force microscopy imaging; complexes co-purified by the HA tag from co-transfected tsA201 cells, adsorbed onto mica for 15 min, dried and imaged in intermittent contact mode; histograms of molecular volumes fitted by a double Gaussian; without ATP, or with 100 μM ATP for 30 min in solution before adsorption
Settings: partners not purified

B1: human 5-HT3A receptor with a C-terminal MYC/His-6 epitope tag (receptor, UniProt P46098 24-478, looked up)
chain: RRSRNTTRPALLRLSDYLLTNYRKGVRPVRDWRKPTTVSIDVIVYAILNVDEKNQVLTTYIWYRQYWTDEFLQWNPEDFDNITKLSIPTDSIWVPDILINEFVDVGKSPNIPYVYIRHQGEVQNYKPLQVVTACSLDIYNFPFDVQNCSLTFTSWLHTIQDINISLWRLPEKVKSDRSVFMNQGEWELLGVLPYFREFSMESSNYYAEMKFYVVIRRRPLFYVVSLLLPSIFLMVMDIVGFYLPPNSGERVSFKITLLLGYSVFLIIVSDTLPATAIGTPLIGVYFVVCMALLVISLAETIFIVRLVHKQDLQQPVPAWLRHLVLERIAWLLCLREQSTSQRPPATSQATKTDDCSAMGNHCSHMGGPQDFEKSPRDRCSPPPPPREASLAVCGLLQELSSIRQFLEKRDEIREVARDWLRVGSVLDKLLFHIYLLAVLAYSITLVMLWSIWQYA
notes: 5-HT3A subunit, human (Homo sapiens), GenBank AK304630.1; UniProt P46098 is printed for the human 5-HT3A subunit in the modelling methods; The subunit ran at 55 kDa on SDS-PAGE; also called 5-HT3A subunit; 5-HT3A-MYC/His6; source: tsA201 cells, transfected (pcDNA3.1, PEI); Triton X-100 solubilised MEMBRANE fraction; eluted from HisPur Ni-NTA agarose beads with 200 mM imidazole; not shown: MYC, …
  stoichiometry N: 1
